Measurements published in paper PMC6349121, “Structural insights into non-covalent ubiquitin activation of the cIAP1-UbcH5B∼ubiquitin complex” (The Journal of Biological Chemistry, 2018).
Blank lines part the entries; values can stand above or below the binder they belong to.

Assays:
UbcH5B = molecular target: T1, UbcH5B (human, UniProt P62837 1-147); assay: SPR; GST-cIAP1R coupled to a CM-5 chip, Biacore T200, 25 °C; analytes diluted in 25 mM Tris-HCl pH 7.6, 150 mM NaCl, 0.1 mg/ml BSA, 1 mM DTT, 0.005% Tween 20; GST alone subtracted; steady-state affinity analysis; conditions: both partners purified
T1 construct: UbcH5B, human Ub-conjugating enzyme (E2), untagged; also called UbcH5B WT

[1] = molecular target: T2, UbcH5B S22R C85K covalently linked to Ub (UbcH5B_(S22R)–Ub) (human, UniProt P62837 1-147; P0CG47 1-76, S22R | C85K, Lys85 (C85K) in a stable amide linkage to Ub | covalently linked to Lys85 of UbcH5B S22R C85K (amide linkage)); assay: as above; conditions: both partners purified
T2 construct: UbcH5B, human Ub-conjugating enzyme (E2); ubiquitin (Ub), human, donor Ub; source: E. coli BL21 (DE3) Gold

[2] = molecular target: T3, UbcH5B C85K covalently linked to Ub (UbcH5B–Ub) (human, UniProt P62837 1-147; P0CG47 1-76, C85K, Lys85 (C85K) in a stable amide linkage to Ub | covalently linked to Lys85 of UbcH5B C85K (amide linkage)); assay: as above; conditions: both partners purified
T3 construct: UbcH5B, human Ub-conjugating enzyme (E2); ubiquitin (Ub), human, donor Ub (Ub^D); the model of 6HPR holds residues 1-76; source: E. coli BL21 (DE3) Gold

[3] = molecular target: T2, UbcH5B S22R C85K covalently linked to …; assay: SPR; as a1, but UbcH5B–Ub variants diluted in running buffer containing 0.6 mM UbΔGG; GST-cIAP1R coupled to a CM-5 chip, 25 °C; steady-state affinity analysis; conditions: both partners purified
ubiquitin (Ub) = molecular target: T4, ubiquitin (Ub) (human, UniProt P0CG47 1-76); assay: crystal structure; cIAP1R, UbcH5B–Ub and Ub mixed at 1:1:1.2 molar ratio; sitting drop, 0.2 M ammonium fluoride, 15% PEG 3350, 19 °C; 1.7 Å; dimer generated by crystallographic symmetry; conditions: both partners purified
T4 construct: ubiquitin (Ub), human; in the model of 6HPR Ub^B is chain B (residues 1-74 seen) and Ub^D chain D (residues 1-76); Free Ub was mixed into the crystallised complex as Ub^B; in the rows on Ub^D it stands for the Ub part of the conjugate m4; also called WT Ub

[4] = molecular target: the molecule itself; assay: as above

- Kd (UbcH5B): 223 ± 4 µM
- Kd [1]: 900 ± 10 nM
- Kd [2]: 830 ± 50 nM
- Kd [3]: 990 ± 50 nM
B1: GST-cIAP1R (cIAP1 RING domain, residues 556-C, with GST) (domain or fragment, human, UniProt Q13490 556-618, looked up)
chain: LSLEEQLRRLQEERTCKVCMDKEVSVVFIPCGHLVVCQECAPSLRKCPICRGIIKGTVRTFLS
notes: pGEX4T1 with a TEV site after GST; the tag is not cleaved in this form; source: E. coli BL21 (DE3) Gold; not shown: GST, N-terminal, kept

- binding result (ubiquitin (Ub)): binds
B2: cIAP1 RING domain (residues 556-C; cIAP1R) (domain or fragment, human, UniProt Q13490 556-618, looked up)
chain: B1 chain
notes: Homodimer through the RING domain; in the crystal the dimer is generated by crystallographic symmetry; also called cIAP1 RING dimer; not shown: GST, N-terminal, cleaved
- binding result [4]: binds
